Measurements as given in patent US12533321B2, “Polypeptide formulations for oral delivery” (Bhami's Research Laboratory, Pvt. Ltd., priority 2022, dated 2026).

How the values were obtained:
Format in all cases: in vivo, Minipigs
[1] = Pharmacokinetics of hGH in albumin crystal capsule (Vitamin E) vs IV, plasma hGH by ELISA
From the text: The microparticle of albumin crystals containing hGH was then lyophilized after washing with cold isopropanol. […] The capsule was then closed.
(§1) Pigs in the oral treatment group was either fasted overnight or fed prior to the test sample administration. […] The time of dosage of each animal was noted. […] An antibody, anti-hGH was pre-coated onto a 96-well plate. […] The intensity of the yellow color is proportional to the hGH amount bound on the plate.

[2] = Pharmacokinetics of hGH in albumin crystal sugar truffle shell vs IV, plasma hGH by ELISA; details: 0.33 mg; for Mean hGH levels: plasma, Pigs
From the text: The microparticle of albumin crystals containing hGH was then lyophilized after washing with cold isopropanol.
as §1

[3] = Pharmacokinetics of adalimumab in albumin crystal capsule (Vitamin E) vs IV, plasma adalimumab by ELISA; design: Mean adalimumab levels: unit not given here; details: 12 mg; for Mean adalimumab levels: plasma, Pigs
From the text: The microparticle of albumin crystals containing adalimumab was then lyophilized after washing with cold isopropanol. […] The capsule was then closed.
as §1, with “anti-adalimumab” for “anti-hGH”, “adalimumab” for “hGH”

[4] = Pharmacokinetics of adalimumab in albumin crystal sugar truffle shell vs IV, plasma adalimumab by ELISA; design: Mean adalimumab levels: unit not given here; details: 12 mg; for Mean adalimumab levels: plasma, Pigs
From the text: The microparticle of albumin crystals containing adalimumab was then lyophilized after washing with cold isopropanol.
as §1, with “anti-adalimumab” for “anti-hGH”, “adalimumab” for “hGH”

Substance: hGH: human growth hormone (human recombinant), given IV
- Mean hGH levels ([1]; 0 h): 18144.54 ± 1619.64 pg/mL
- AUC 0-inf_obs ([1]; 0.33 mg, Minipigs): 0.160057765 µg·h/mL
- AUC 0-inf_pred ([1]; 0.33 mg, Minipigs): 0.158135382 µg·h/mL
- AUC t-inf_obs ([1]; 0.33 mg, Minipigs): 0.005998634 µg·h/mL
- AUC t-inf_pred ([1]; 0.33 mg, Minipigs): 0.004076251 µg·h/mL
- AUC(0-t) ([1]; 0.33 mg, Minipigs): 0.154059131 µg·h/mL
- AUMC 0-inf_obs ([1]; 0.33 mg, Minipigs): 1696005.242 pg/ml * h^2
- AUMC 0-inf_pred ([1]; 0.33 mg, Minipigs): 1578826.575 pg/ml * h^2
- AUMC 0-t ([1]; 0.33 mg, Minipigs): 1330359.118 pg/ml * h^2
- AUMC 0-t/0-inf_obs ([1]; 0.33 mg, Minipigs): 0.784
- AUMC 0-t/0-inf_pred ([1]; 0.33 mg, Minipigs): 0.843
- AUMC t-inf_obs ([1]; 0.33 mg, Minipigs): 365646.123 pg/ml * h^2
- AUMC t-inf_pred ([1]; 0.33 mg, Minipigs): 248467.457 pg/ml * h^2
- C0 ([1]; 0.33 mg, Minipigs): 18.14454 ng/mL
- Cl_obs ([1]; 0.33 mg, Minipigs): 0.000 (mg)/(pg/ml)/h
- Clast_obs ([1]; 0.33 mg, Minipigs): 0.46304 ng/mL
- Clast_pred ([1]; 0.33 mg, Minipigs): 0.31465 ng/mL
- Cmax ([1]; 0.33 mg, Minipigs): 22.5132 ng/mL
- Lambda_z ([1]; 0.33 mg, Minipigs): 0.077 h⁻¹
- MRT 0-inf_obs ([1]; 0.33 mg, Minipigs): 10.596 h
- MRT 0-inf_pred ([1]; 0.33 mg, Minipigs): 9.984 h
- MRT 0-t ([1]; 0.33 mg, Minipigs): 8.635 h
- Tlast ([1]; 0.33 mg, Minipigs): 48.000 h
- Tmax ([1]; 0.33 mg, Minipigs): 0.500 h
- Vss_obs ([1]; 0.33 mg, Minipigs): 0.000 (mg)/(pg/ml)
- Vz_obs ([1]; 0.33 mg, Minipigs): 0.000 (mg)/(pg/ml)
- t½ ([1]; 0.33 mg, Minipigs): 8.980 h
- Mean hGH levels ([1]; 0.08 h): 20014.87 ± 620.32 pg/mL
- Mean hGH levels ([1]; 0.5 h): 22513.2 ± 562.85 pg/mL
- Mean hGH levels ([1]; 1 h): 22130.7 ± 728.54 pg/mL
- Mean hGH levels ([1]; 4 h): 14910.13 ± 2908.87 pg/mL
- Mean hGH levels ([1]; 8 h): 1159.19 ± 226.15 pg/mL
- Mean hGH levels ([1]; 24 h): 1495.55 ± 291.77 pg/mL
- Mean hGH levels ([1]; 48 h): 463.04 ± 90.34 pg/mL
- AUC 0-inf_obs ([2]; Minipigs): 0.160057765 µg·h/mL
- AUC 0-inf_pred ([2]; Minipigs): 0.158135382 µg·h/mL
- AUC t-inf_obs ([2]; Minipigs): 0.005998634 µg·h/mL
- AUC t-inf_pred ([2]; Minipigs): 0.004076251 µg·h/mL
- AUC(0-t) ([2]; Minipigs): 0.154059131 µg·h/mL
- AUMC 0-inf_obs ([2]; Minipigs): 1696005.242 pg/ml * h^2
- AUMC 0-inf_pred ([2]; Minipigs): 1578826.575 pg/ml * h^2
- AUMC 0-t ([2]; Minipigs): 1330359.118 pg/ml * h^2
- AUMC 0-t/0-inf_obs ([2]; Minipigs): 0.784
- AUMC 0-t/0-inf_pred ([2]; Minipigs): 0.843
- AUMC t-inf_obs ([2]; Minipigs): 365646.123 pg/ml * h^2
- AUMC t-inf_pred ([2]; Minipigs): 248467.457 pg/ml * h^2
- C0 ([2]; Minipigs): 18.14454 ng/mL
- Cl_obs ([2]; Minipigs): 0.000 (mg)/(pg/ml)/h
- Clast_obs ([2]; Minipigs): 0.46304 ng/mL
- Clast_pred ([2]; Minipigs): 0.31465 ng/mL
- Cmax ([2]; Minipigs): 22.5132 ng/mL
- Lambda_z ([2]; Minipigs): 0.077 h⁻¹
- MRT 0-inf_obs ([2]; Minipigs): 10.596 h
- MRT 0-inf_pred ([2]; Minipigs): 9.984 h
- MRT 0-t ([2]; Minipigs): 8.635 h
- Tlast ([2]; Minipigs): 48.000 h
- Tmax ([2]; Minipigs): 0.500 h
- Vss_obs ([2]; Minipigs): 0.000 (mg)/(pg/ml)
- Vz_obs ([2]; Minipigs): 0.000 (mg)/(pg/ml)
- t½ ([2]; Minipigs): 8.980 h
- Mean hGH levels ([2]; 0 hrs): 18144.54 ± 1619.64 pg/mL
- Mean hGH levels ([2]; 0.08 hrs): 20014.87 ± 620.32 pg/mL
- Mean hGH levels ([2]; 0.5 hrs): 22513.2 ± 562.85 pg/mL
- Mean hGH levels ([2]; 1 hrs): 22130.7 ± 728.54 pg/mL
- Mean hGH levels ([2]; 4 hrs): 14910.13 ± 2908.87 pg/mL
- Mean hGH levels ([2]; 8 hrs): 1159.19 ± 226.15 pg/mL
- Mean hGH levels ([2]; 24 hrs): 1495.55 ± 291.77 pg/mL
- Mean hGH levels ([2]; 48 hrs): 463.04 ± 90.34 pg/mL

Substance: adalimumab
- AUC 0-inf_obs ([3]; Minipigs): 2387.704908 µg·h/mL
- AUC 0-inf_pred ([3]; Minipigs): 2433.025437 µg·h/mL
- AUC t-inf_obs ([3]; Minipigs): 1464.822434 µg·h/mL
- AUC t-inf_pred ([3]; Minipigs): 1510.142963 µg·h/mL
- AUC(0-t) ([3]; Minipigs): 922.8824739 µg·h/mL
- AUMC 0-inf_obs ([3]; Minipigs): 476541890.8 ng/ml * h^2
- AUMC 0-inf_pred ([3]; Minipigs): 490022798.4 ng/ml * h^2
- AUMC 0-t ([3]; Minipigs): 40820243.03 ng/ml * h^2
- AUMC 0-t/0-inf_obs ([3]; Minipigs): 0.08566
- AUMC 0-t/0-inf_pred ([3]; Minipigs): 0.0833
- AUMC t-inf_obs ([3]; Minipigs): 435721647.8 ng/ml * h^2
- AUMC t-inf_pred ([3]; Minipigs): 449202555.4 ng/ml * h^2
- C0 ([3]; Minipigs): 8311 ng/mL
- Cl_obs ([3]; Minipigs): 5.026E−06 (mg)/(ng/ml)/h
- Cl_pred ([3]; Minipigs): 4.932E−06 (mg)/(ng/ml)/h
- Clast_obs ([3]; Minipigs): 7271 ng/mL
- Clast_pred ([3]; Minipigs): 7496 ng/mL
- Cmax ([3]; Minipigs): 12110.42857 ng/mL
- Lambda_z ([3]; Minipigs): 0.00496 h⁻¹
- MRT 0-inf_obs ([3]; Minipigs): 199.6 h
- MRT 0-inf_pred ([3]; Minipigs): 201.4 h
- MRT 0-t ([3]; Minipigs): 44.23 h
- Tlast ([3]; Minipigs): 96 h
- Tmax ([3]; Minipigs): 2 h
- Vss_obs ([3]; Minipigs): 0.001003 (mg)/(ng/ml)
- Vss_pred ([3]; Minipigs): 0.0009934 (mg)/(ng/ml)
- Vz_obs ([3]; Minipigs): 0.001012 (mg)/(ng/ml)
- Vz_pred ([3]; Minipigs): 0.0009936 (mg)/(ng/ml)
- t½ ([3]; Minipigs): 139.6393 h
- Mean adalimumab levels ([3]; 0 hrs): 8311.04
- Mean adalimumab levels ([3]; 0.08 hrs): 11638.36
- Mean adalimumab levels ([3]; 0.5 hrs): 11171.29
- Mean adalimumab levels ([3]; 1 hrs): 11637.57
- Mean adalimumab levels ([3]; 2 hrs): 11541.29
- Mean adalimumab levels ([3]; 4 hrs): 12110.43
- Mean adalimumab levels ([3]; 8 hrs): 11914.71
- Mean adalimumab levels ([3]; 24 hrs): 11552.57
- Mean adalimumab levels ([3]; 48 hrs): 10162.00
- Mean adalimumab levels ([3]; 72 hrs): 9803.00
- Mean adalimumab levels ([3]; 96 hrs): 8772.00
- AUC 0-inf_obs ([4]; Minipigs): 2387.704908 µg·h/mL
- AUC 0-inf_pred ([4]; Minipigs): 2433.025437 µg·h/mL
- AUC t-inf_obs ([4]; Minipigs): 1464.822434 µg·h/mL
- AUC t-inf_pred ([4]; Minipigs): 1510.142963 µg·h/mL
- AUC(0-t) ([4]; Minipigs): 922.8824739 µg·h/mL
- AUMC 0-inf_obs ([4]; Minipigs): 476541890.8 ng/ml * h^2
- AUMC 0-inf_pred ([4]; Minipigs): 490022798.4 ng/ml * h^2
- AUMC 0-t ([4]; Minipigs): 40820243.03 ng/ml * h^2
- AUMC 0-t/0-inf_obs ([4]; Minipigs): 0.08566
- AUMC 0-t/0-inf_pred ([4]; Minipigs): 0.0833
- AUMC t-inf_obs ([4]; Minipigs): 435721647.8 ng/ml * h^2
- AUMC t-inf_pred ([4]; Minipigs): 449202555.4 ng/ml * h^2
- C0 ([4]; Minipigs): 8311 ng/mL
- Cl_obs ([4]; Minipigs): 5.026E−06 (mg)/(ng/ml)/h
- Cl_pred ([4]; Minipigs): 4.932E−06 (mg)/(ng/ml)/h
- Clast_obs ([4]; Minipigs): 7271 ng/mL
- Clast_pred ([4]; Minipigs): 7496 ng/mL
- Cmax ([4]; Minipigs): 12110.42857 ng/mL
- Lambda_z ([4]; Minipigs): 0.00496 h⁻¹
- MRT 0-inf_obs ([4]; Minipigs): 199.6 h
- MRT 0-inf_pred ([4]; Minipigs): 201.4 h
- MRT 0-t ([4]; Minipigs): 44.23 h
- Tlast ([4]; Minipigs): 96 h
- Tmax ([4]; Minipigs): 2 h
- Vss_obs ([4]; Minipigs): 0.001003 (mg)/(ng/ml)
- Vss_pred ([4]; Minipigs): 0.0009934 (mg)/(ng/ml)
- Vz_obs ([4]; Minipigs): 0.001012 (mg)/(ng/ml)
- Vz_pred ([4]; Minipigs): 0.0009936 (mg)/(ng/ml)
- t½ ([4]; Minipigs): 139.6393 h
- Mean adalimumab levels ([4]; 0 hrs): 8311.04
- Mean adalimumab levels ([4]; 0.08 hrs): 11638.36
- Mean adalimumab levels ([4]; 0.5 hrs): 11171.29
- Mean adalimumab levels ([4]; 1 hrs): 11637.57
- Mean adalimumab levels ([4]; 2 hrs): 11541.29
- Mean adalimumab levels ([4]; 4 hrs): 12110.43
- Mean adalimumab levels ([4]; 8 hrs): 11914.71
- Mean adalimumab levels ([4]; 24 hrs): 11552.57
- Mean adalimumab levels ([4]; 48 hrs): 10162.00
- Mean adalimumab levels ([4]; 72 hrs): 9803.00
- Mean adalimumab levels ([4]; 96 hrs): 8772.00
